# According to patent publication CN118459575A:
# B1: 广谱抗sarbecovirus和/或新冠突变株的抗体 SCM12-61 (antibody, V domains shown)
# VH: QVQLVESGGGVVQPGRSLRLSCATSGFTFRSSAMHWVRQAPGKGLEWVAVIWFDGIKKYYTDSVKGRFTISRDNSKNTLYLQMNSLGAEDTAVYYCARDRAREFYPGPHCGDECYSSDAFDVWGQGTTVIVSS
# VL: DIQMTQSPSSLSASVGDRVTITCRASQDINTYLNWYQQKSGRAPKFLIYAASSLQSGIPSRFSGSGSGTDFTLTIDSLQPEDFATYYCQQSHSIPYTFGQGTKLEIKR
# Molecular target: 新型冠状病毒SARS-CoV-2和SARS-CoV以及动物来源的SARS-like冠状病毒S1
# Experiment: ELISA, S1 coated at 2 μg/mL, antibody titrated
binder,measurement,value
B1,EC50,0.0239 to 0.0405 µg/mL
